From US10835608B2, “Polymer-carbohydrate conjugates for drug delivery technology” (priority 2013, dated 2020)

assay: Solubility study of voriconazole: minimum polymer to drug ratio required to solubilize voriconazole; details: 1% (w/v) voriconazole in saline based solution
Experimental: 1% (w/v) of voricazole was prepared in a saline based solution with different PEG-carbohydrate conjugates.

Substance	Polymer concentration needed to solubilize voriconazole, comparison in words	Solubilizing Voriconazole (min. polymer to drug ratio)
N,N,N-oleoyl-lactobionoyl-mPEG(12)propanediamine	much high concentration	20

assay: Solubility study of propofol: minimum conjugate concentration required to solubilize propofol; assay type: physicochemical; details: 1% (w/v) propofol in saline based solution
Text: Table 15 listed the minimum concentration of the conjugates required to solubilize propofol as a solubility test reference.

Substance	Concentration (minimum concentration of the conjugate required to solubilize propofol)	Conjugate concentration needed to solubilize propofol, comparison in words
Cholecalciferol-diethylene-triamineisomal-totriose-mPEG11	2.2 % w/v	–
Cholesterypropanediamineascorbate-mPEG11	4.6 % w/v	–
Cholesterypropanediaminegluconate-mPEG11	5.3 % w/v	much high conjugate concentration was required
Cholesterypropanediamineisomaltotriose-mPEG11	2.0 % w/v	–
Cholesterypropanediaminelactobionate-mPEG11	3.2 % w/v	–
Cholesterytriethylenetetraminelactobionate-di-mPEG11	1.6 % w/v	–
Retinoylpropanediaminelactobionate-mPEG11	2.9 % w/v	–
Tocopherylpropanediaminelactobionate-mPEG11	3.3 % w/v	the lowest molar concentration
